Assay results as given in the supplement of paper PMC10899765.

Experiments:
Conditions in all cases: 20 nM; 72 h
[1] = test system: MCF10A; assay: one-nucleolus phenotype percent effect (relative to siNT 0% and siNOL11 100%); higher = more cells with one nucleolus (ribosome biogenesis inhibition)
Method: (§1)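 After 72 h, cells were fixed and stained with Hoechst and anti-fibrillarin, and nucleoli per nucleus were counted with CellProfiler. Values are plate-adjusted percent effect for the one-nucleolus and 5+ nucleoli phenotypes, normalised to siNT (0%) and to the positive controls siNOL11 or siKIF11 (100%), as the mean of biological triplicates. Percent viability is the nuclei count relative to siNT.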

[2] = test system: MCF10A; assay: 5+ nucleoli phenotype percent effect (relative to siNT 0% and siKIF11 100%); higher = more cells with five or more nucleoli
Method: as §1

[3] = test system: MCF10A; assay: percent viability (nuclei count relative to siNT); higher = more viable cells
Method: as §1

| Sequence | one-nucleolus phenotype percent effect [1] | 5+ nucleoli phenotype percent effect [2] | percent viability [3] |
| --- | --- | --- | --- |
| CAGGGAGAAGGUGGAAGUGCAGA [hsa-miR-6760-5p] | -0.928% | 29.9% | 24.8% |
| CAGGGAGGCGCUCACUCUCUGCU [hsa-miR-4756-5p] | -3.87% | 41% | 158% |
| CAGGGAGGUGAAUGUGAU [hsa-miR-1321] | 19.8% | 6.81% | 20.2% |
| CAGGGCAGAGGGCACAGGAAUCUGA [hsa-miR-6735-5p] | 11.3% | -26.5% | 31.9% |
| CAGGGCAGGAAGAAGUGGACAA [hsa-miR-4436b-3p] | 31.7% | -7.65% | 20.5% |
| CAGGGCAGGGAAGGUGGGAGAG [hsa-miR-6879-5p] | -11.1% | 36.6% | 67.3% |
| CAGGGCCAGGCACAGAGUAAG [hsa-miR-6895-5p] | 13.8% | 0.712% | 41.8% |
| CAGGGCCCUGGCUUUAGCAGA [hsa-miR-7160-3p] | 14.8% | -4.58% | 41.3% |
| CAGGGCCUCACUGUAUCGCCCA [hsa-miR-4512] | 18.5% | 0.0146% | 20% |
| CAGGGCUCAGGGAUUGGAUGGAG [hsa-miR-5088] | -7.65% | 20.4% | 77.7% |
| CAGGGCUCAGGGAUUGGAUGGAGG [hsa-miR-5088-5p] | -17.9% | 15.2% | 86.9% |
| CAGGGCUGGCAGUGACAUGGGU [hsa-miR-4446-3p] | 1.33% | -5.74% | 25.9% |
| CAGGGGCUGGGGUUUCAGGUUCU [hsa-miR-6813-5p] | -4.41% | -16.1% | 23.1% |
| CAGGGGGACUGGGGGUGAGC [hsa-miR-6794-5p] | 5.76% | 7.3% | 50.1% |
| CAGGGUCAGCUGAGCAUG [hsa-miR-1178-5p] | 9.85% | 8.34% | 51.5% |
| CAGGUAGAUAUUUGAUAGGCAU [hsa-miR-3927-3p] | -16.5% | 29.3% | 24.8% |
| CAGGUCACGUCUCUGCAGUUAC [hsa-miR-370-5p] | -14.6% | 5.92% | 54.3% |
| CAGUAACAAAGAUUCAUCCUUGU [hsa-miR-802] | -6.9% | -6.89% | 81.8% |

| Sequence | one-nucleolus phenotype percent effect [1] | 5+ nucleoli phenotype percent effect [2] | percent viability [3] |
| --- | --- | --- | --- |
| CAGUGAUCGUCUCUGCUGGC [hsa-miR-8079] | 6.32% | -35% | 41.6% |
| CAGUGAUUUGAGGAUUAUUGC [hsa-miR-8062] | 7.28% | -26.5% | 63.9% |
| CAGUGCAAGUGUAGAUGCCGA [hsa-miR-3666] | -18.2% | 66.7% | 150% |
| CAGUGCAAUAGUAUUGUCAAAGC [hsa-miR-301a-3p] | -17.2% | 43.8% | 126% |
| CAGUGCAAUGAUAUUGUCAAAGC [hsa-miR-301b] | -11.1% | 45.2% | 95.6% |
| CAGUGCAAUGAUGAAAGGGCAU [hsa-miR-130b-3p] | -14.8% | 59.9% | 77% |
| CAGUGCAAUGUUAAAAGGGCAU [hsa-miR-130a-3p] | -19.9% | 49.2% | 120% |
| CAGUGCAAUGUUUUCCUU [hsa-miR-4295] | -33% | 97.9% | 78.5% |
| CAGUGCCUCGGCAGUGCAGCCC [hsa-miR-33b-3p] | -17.8% | 24.5% | 107% |
| CAGUGGCCAGAGCCCUGCAGUG [hsa-miR-3677-5p] | 16.6% | -20.3% | 28.6% |
| CAGUGGUUUUACCCUAUGGUAG [hsa-miR-140-5p] | 20.1% | -31.4% | 61.4% |
| CAGUGUUCAGAGAUGGA [hsa-miR-4255] | -51.8% | 68.6% | 148% |
| CAGUUAUCACAGUGCUGAUGCU [hsa-miR-101-5p] | 8.44% | -23.5% | 33.9% |
| CAGUUCAGAAGUGUUCCUGAGU [hsa-miR-5000-5p] | -9.77% | -19.1% | 32.3% |
| CAGUUCUGCUGUUCUGACUCUAG [hsa-miR-6874-3p] | -4.11% | -30.6% | 28.9% |
| CAGUUGGGUCUAGGGGUCAGGA [hsa-miR-4259] | 31.8% | -30.7% | 16% |
| CAUAAAGUAGAAAGCACUACU [hsa-miR-142-5p] | -15.5% | 15% | 82.4% |
| CAUACAAUCUGACAUGUAUUU [hsa-miR-4666a-3p] | -4.04% | 15.8% | 66.1% |
